Data taken from patent US7312058B2, “Mutant serine acetyltransferase” (priority 2003, dated 2007).

What was measured:
E. coli strain MG1655 = test: L-cysteine production by test-tube fermentation of strains carrying a mutant cysE plasmid; type: cell-based
Excerpt: The E. coli strain MG1655 (ATCC47076, ATCC700926) was used as a parental strain for evaluation of effect of enhanced expression of mutant cysE gene on L-cysteine production.
Plasmids pMW-PompC-cysEX (containing mutant cysEX gene encoding a mutant SAT in which Thr167 is replaced with Ala, which is described in the U.S. Pat. No. 6,218,168) and pMW-PompC-cysE5 were introduced into the E. coli strain MG1655. The resulting strains MG1655/pMW-PompC-cysEX and MG1655/pMW-PompC-cysE5 were cultivated overnight with shaking at 34° C. in 2 ml of nutrient broth supplemented with 100 mg/l of ampicillin. 0.2 ml of the obtained cultures were inoculated into 2 ml of a fermentation medium containing ampicillin (100 mg/l) in 20×200 mm test tubes, and cultivated at 34° C. for 42 hours with a rotary shaker at 250 rpm. The composition of the fermentation medium was the following: 15.0 g/l of (NH4)2SO4, 1.5 g/l of KH2PO4, 1.0 g/l of MgSO4, 20.0 g/l of CaCO3, 0.1 mg/l of thiamine, 1% of LB, 4% of glucose, 300 mg/l of L-methionine and 0.5 g/l of Na2S2O3.
After cultivation, the amount of L-cysteine which had accumulated in the medium was determined by the method described by Gaitonde, M. K. (Biochem. J., 104:2, 627-33 (1967)).

[1] = test system: serine acetyltransferase (SAT)
Description: Acetyl coenzyme A and other chemicals used were from Sigma Chemical Co. (St. Louis, Mo., USA).
The cells were sonicated and the pellet was separated by centrifugation at 13000 rpm. The SAT-containing protein fractions in the resulting supernatant were precipitated by 5 volumes of saturated (NH4)2SO4 and pellets were dissolved in 2 ml of buffer (pH 7.5, 50 mM potassium phosphate and 100 mM KCl). The obtained solution was added to 0.1 ml of reaction mixture (500 mM Tris-HCl (pH 8.5), 5 mM L-serine, 0.1 mM acetyl coenzyme A) and incubated at 37° C. for 10 min. The reaction was stopped by adding 0.3 ml of ethanol followed by centrifugation at 13000 rpm. 0.95 ml of 0.24 mM DTNB (5,5-dithio-bis-2-nitrobenzoate) solution was added to supernatant and mixture was incubated for 15 min. The SAT activity was assayed by measuring the absorbance at 412 nm.

With “cysE5 (RTRDPARP; randomized region of SAT protein only)” as the substance, how does the “effect of overexpression on cysteine productivity” value (E. coli strain MG1655) read?
The value was “improved cysteine productivity”.

What about the “Residual activity in presence 25 μM cysteine, %” value ([1]; 25 μM cysteine) of the same substance?
The value was 100%.

And the “Specific activity, relative units” value ([1]; protein fraction from LE392 cysE::KmR carrying the plasmid, 5 mM L-serine, 0.1 mM acetyl coenzyme A, 37° C., 10 min)?
The value was 900 relative units.

What about the “sensitivity to feedback inhibition by L-cysteine” value ([1]; statement from Table 2 and FIG. 5) of the same substance?
The value was “no sensitivity to feedback inhibition by L-cysteine”.
